Where “and” joins values, the source holds several entries; their conditions need not be identical. Identical values can stand only once. Entries after “also recorded” stand apart in the source; their conditions may differ.
Assays:
[1] = system: M1 (renal cancer cell line); experiment: Live cell surface indirect immunofluorescence, M1; type: cell-based; conditions: live cells on ice; two cancer cell lines (M1, MMMT539)
Description: Anti-Human SAS1B mouse monoclonal antibodies reactive to SAS1B epitope on live cancer cell surfaces were identified by indirect immuno-fluorescence (IF) for the development of therapeutic antibodies. M1 (renal cancer cell line) and MMMT539 (uterine cancer cell line) cells were seeded at 20,000 cells in 1 ml per well on collagen coated coverslips in 24 well plates. The media was replaced 22 h post seeding. For antibody probing, cells were kept on ice for ˜8 to 18 min following 47 h post-seeding. The first antibody was added at 10 ug/ml, 20 ug/ml or 50 ug/ml in complete culture media with 15 mM NaN3 (pre-chilled), incubated on ice for 60 min, and the cells washed in complete culture media with 15 mM NaN3 in cold 1 ml, ×3. The second antibody, goat-antimouse-AF488 (pre-chilled), was added to the wells at 5 ug/ml in complete culture media with 15 mM NaN3 for 60 min on ice. The cells were washed in complete media with 15 mM NaN3, 1 ml, ×3 on ice. The cells were fixed in 4% PFA in PBS for 20 minutes on ice. The cells were washed in distilled water at RT, 1 ml, ×1 and mounted in 8 ul of SLOWFADE® Diamond Antifade Mountant with DAPI. An anti-EGFR monoclonal antibody was used as a positive control on live M1 cells. Epidermal growth factor receptor (EGFR) is a transmembrane glycoprotein and member of protein kinase superfamily. […] Anti-human CABYR monoclonal antibody 3A4 was used as a negative control on live MMMT539 cells. CABYR is a calcium binding cytoskeleton sperm protein with no transmembrane domain.

[2] = target: T1, human SAS1B protein with a C-terminal V5 tag expressed by HEK293T cells (Homo sapiens, UniProt Q6HA08); experiment: Double immunofluorescence on fixed and permeabilized HEK293T cells transfected with SAS1B SV-A with V5 tag; type: cell-based; conditions: for IF signal / colocalization with V5-tag epitope signal: SV-A transfected HEK293T, PFA fixed, methanol permeabilized, mAbs at 10 ug/ml
T1 construct: expressed in transfected cells; host or cells: HEK293T
T1 sequence (Q6HA08 24-431): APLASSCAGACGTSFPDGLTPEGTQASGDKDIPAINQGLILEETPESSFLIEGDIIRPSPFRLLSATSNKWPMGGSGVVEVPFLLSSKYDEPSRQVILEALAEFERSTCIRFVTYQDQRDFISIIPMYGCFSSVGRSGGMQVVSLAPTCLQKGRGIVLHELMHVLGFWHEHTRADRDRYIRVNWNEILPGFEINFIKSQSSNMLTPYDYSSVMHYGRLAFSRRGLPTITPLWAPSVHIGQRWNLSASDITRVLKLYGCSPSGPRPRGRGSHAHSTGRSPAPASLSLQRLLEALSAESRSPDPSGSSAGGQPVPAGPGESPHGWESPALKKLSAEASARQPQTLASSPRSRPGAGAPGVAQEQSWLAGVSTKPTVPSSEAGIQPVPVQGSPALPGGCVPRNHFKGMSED
Description: Experiments were conducted to determine the specificity of anti-human SAS1B monoclonal antibodies SB1, SB2, SB3, SB4, SB5, SB6 and SB7 against the human SAS1B protein with a C-terminal V5 tag expressed by HEK293T cells by double immuno-fluorescence from two different SAS1B epitopes. HEK293T cells were seeded at ˜100,000 per well of a 24 well plate containing a lysine-coated 12 mm coverslip. 24 hours later, the cells were transfected with 1 ug of SV-A plasmid with 2 ul of TURBOFECT® transfection reagent followed by no change of media. 48 h later the cells were PFA (paraformaldehyde) fixed and methanol permeabilized for an IF study as follows.
The cells were removed from cell culture media and fixed in 4% PFA in PBS, 300 ul for 15 min. The cells were washed in 1 ml PBS in wells for 3 times and permeabilized in methanol (100%) for 15 min in 0.5 ml at RT. The cells were washed in PBS 1 ml for 3 times and blocked in complete culture media (DMEM) with 5% normal goat serum (NGS) for 30 min (i.e. BB, blocking buffer). The first antibody in BB was added for 1 h at 10 ug/ml for mouse monoclonal antibodies (SB1, SB2, SB3, SB4, SB5, SB6, SB7) and 5 ug/ml for anti-V5 DYLIGHT® 488 (green) rabbit (a rabbit polyclonal antibody to V5 tag). The cells were washed in PBS 3 times. The second antibody in BB (Goat anti-mouse Alexa Flour 594, red) was added for 1 h at 5 ug/ml (1:200 dilution). The cells were washed in PBS 3 times. The cells were mounted in slow fade DAPI 3 ul and stored at 4° C. before confocal imaging.

[3] = system: human uterine cancer cells; experiment: ADC assay on human uterine cancer cells using Fab-anti-mouse IgG Fc (Duocarmycin DM conjugated or unconjugated); type: cell-based; conditions: for Cytotoxic effect / Viability: 4 days; for Cell killing effects as antibody-duocarmycin conjugates on SAS1B+ human tumor cells (FIG. 28): uterine tumor cells in vitro; for Viability: 0.01 nM mAb
Description: The cytotoxic effect of anti-human SAS1B monoclonal antibodies SB1, SB3 and SB4 on human uterine cancer cells was investigated by ADC assay using Fab-anti-mouse IgG Fc conjugated to Duocarmycin DM with a cleavable linker. An average of 3 experiments were done in triplicate. […] At 0.01 nM the viability was only 40% compared to ˜80% viability for SB4 mAb.
The cytotoxic effect of anti-human SAS1B mAbs SB1, SB2, SB3, SB4 and SB5 on human uterine cancer cells by ADC assay using unconjugated Fab-anti-mouse IgG Fc was examined. An average of 1 or 2 experiments in triplicate were performed. […] See FIGS. 10A-B. The cytotoxic effect of anti-human SAS1B mAbs SB1, SB2, SB3, SB4, and SB5 was tested on human uterine cancer cells by ADC assay using Fab-anti-mouse IgG Fc conjugated to Duocarmycin DM with cleavable linker. An average of 3 experiments were completed in triplicate. […] At 0.01 nM the viability for SB3, SB2, SB4 and SB5 were 42%, 66%, 80% and 87% respectively.

[4] = target: T2, SAS1B extracellular domain (aa 164-431) polypeptide (Homo sapiens, UniProt Q6HA08); experiment: Western blot with mammalian cell-expressed recombinant SAS1B, extracellular domain; type: binding
T2 construct: SAS1B extracellular domain (aa 164-431) polypeptide; made in house
T2 sequence (Q6HA08 164-431): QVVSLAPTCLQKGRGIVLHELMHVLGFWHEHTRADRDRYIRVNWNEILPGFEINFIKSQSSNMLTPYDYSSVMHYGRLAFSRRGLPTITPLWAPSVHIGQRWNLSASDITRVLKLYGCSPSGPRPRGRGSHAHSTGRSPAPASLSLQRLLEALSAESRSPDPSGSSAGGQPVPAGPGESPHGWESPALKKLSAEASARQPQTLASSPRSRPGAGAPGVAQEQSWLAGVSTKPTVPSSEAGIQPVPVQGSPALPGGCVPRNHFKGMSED
Description: SAS1B monoclonal antibodies were analyzed with mammalian cell-expressed recombinant SAS1B by western blotting.

[5] = Fab-anti-mouse IgG Fc conjugated to Duocarmycin DM with cleavable linker
[6] = isotype-specific unconjugated Fab

B1: SB2: mouse anti-human SAS1B monoclonal antibody, IgG2b; VH SEQ ID NO:14, VL SEQ ID NO:15 (antibody, listed as Mus musculus, V domains shown)
VH: EVQLQQSGPELVKPGSSVKISCKASGYTFTDYNMVWVKQSHGKSLEWIGAVNPNNGGTSYNQKFKGKATLTVDKSSSTAYMELRSLTSEDSAVYYCVPNWDWFAYWGQGTLVTVSA
VL: DVLMTQTPLSLPVSLGDQASISCRSSQSLVHSNGNTYLEWYLQKPGQSPNLLIYKVSNRFSGVPDRFSGSGSGTDFTLKISRVEAEDLGVYYCFQGSHVPFTFGSGTKLEIK
Surface labelling of live cancer cells [1]: labelled the surface
IF signal / colocalization with V5-tag epitope signal [2]: colocalize (merge) with V5-tag epitope signal
Signal on mock transfected HEK293T cells [2]: no V5 signal or SAS1B signal
Cytotoxic effect [3, 5]: strong cytotoxic effect at 0.1 nM and higher concentrations
Cytotoxic effect [3, 6]: no cytotoxic effect
Cell killing effects as antibody-duocarmycin conjugates on SAS1B+ human tumor cells (FIG. 28) [3]: sub-nanomolar concentrations
Reaction with SAS1B extracellular domain (aa 164-431) polypeptide [4]: none of the them reacted

B2: SB4: mouse anti-human SAS1B monoclonal antibody, IgG2a; VH SEQ ID NO:16, VL SEQ ID NO:17 (antibody, listed as Mus musculus, V domains shown)
VH: EVQLQQSGPELVKPGSSVKISCKPSGYTFTDYNMVWMKQSHGKSLEWIGAINPNNGGTTYNQKFKGKATLTVDKSSSTAYMELRSLTSEDSAVYYCAPNWDWFAYWGQGTLVTVSA
VL: DVLMTQTPLSLPVSLGDQASISCRSSQSILHSNGNTYLEWYLQKPGQSPKLLIYKVSNRFSGVPDRFSGSGSGTDFTLKISRVEAEDLGVYYCFQGSHVPFTFGSGTKLEIK
Surface labelling of live cancer cells [1]: labelled the surface
IF signal / colocalization with V5-tag epitope signal [2]: colocalize (merge) with V5-tag epitope signal; also recorded: recognizing native SAS1B in fixed cells
Signal on mock transfected HEK293T cells [2]: no V5 signal or SAS1B signal
Viability [3, 5]: ~80%
Cytotoxic effect [3, 5]: cytotoxic effect at 0.01, 0.1 nM and higher concentrations; also recorded: strong cytotoxic effect at 0.1 nM and higher concentrations
Cytotoxic effect [3, 6]: no cytotoxic effect
Cell killing effects as antibody-duocarmycin conjugates on SAS1B+ human tumor cells (FIG. 28) [3]: sub-nanomolar concentrations
Reaction with SAS1B extracellular domain (aa 164-431) polypeptide [4]: none of the them reacted

B3: SB5: mouse anti-human SAS1B monoclonal antibody, IgG2b; VH SEQ ID NO:16, VL SEQ ID NO:18 (antibody, listed as Mus musculus, V domains shown)
VH: EVQLQQSGPELVKPGSSVKISCKPSGYTFTDYNMVWMKQSHGKSLEWIGAINPNNGGTTYNQKFKGKATLTVDKSSSTAYMELRSLTSEDSAVYYCAPNWDWFAYWGQGTLVTVSA
VL: DVLMTQIPLSLPVSLGDQASISCRSSQSILHSNGNTYLEWYLQKPGQSPKLLIYKVSNRFSGVPDRFSGSGSGTDFTLKISRVEAEDLGVYYCFQGSHVPFTFGSGTKLEIK
Surface labelling of live cancer cells [1]: labelled the surface
IF signal / colocalization with V5-tag epitope signal [2]: colocalize (merge) with V5-tag epitope signal
Signal on mock transfected HEK293T cells [2]: no V5 signal or SAS1B signal
Cytotoxic effect [3, 5]: strong cytotoxic effect at 0.1 nM and higher concentrations
Cytotoxic effect [3, 6]: no cytotoxic effect
Cell killing effects as antibody-duocarmycin conjugates on SAS1B+ human tumor cells (FIG. 28) [3]: sub-nanomolar concentrations
Reaction with SAS1B extracellular domain (aa 164-431) polypeptide [4]: none of the them reacted

B4: SB3: mouse anti-human SAS1B monoclonal antibody, IgG2b; VH SEQ ID NO:14, VL SEQ ID NO:15 (antibody, listed as Mus musculus, V domains shown)
VH: EVQLQQSGPELVKPGSSVKISCKASGYTFTDYNMVWVKQSHGKSLEWIGAVNPNNGGTSYNQKFKGKATLTVDKSSSTAYMELRSLTSEDSAVYYCVPNWDWFAYWGQGTLVTVSA
VL: DVLMTQTPLSLPVSLGDQASISCRSSQSLVHSNGNTYLEWYLQKPGQSPNLLIYKVSNRFSGVPDRFSGSGSGTDFTLKISRVEAEDLGVYYCFQGSHVPFTFGSGTKLEIK
Surface labelling of live cancer cells [1]: labelled the surface
IF signal / colocalization with V5-tag epitope signal [2]: colocalize (merge) with V5-tag epitope signal
Signal on mock transfected HEK293T cells [2]: no V5 signal or SAS1B signal
Viability [3, 5]: 40% and 42%
Cytotoxic effect [3, 5]: strongest cytotoxic effect; also recorded: strong cytotoxic effect at 0.1 nM and higher concentrations
Cytotoxic effect [3, 6]: no cytotoxic effect
Cell killing effects as antibody-duocarmycin conjugates on SAS1B+ human tumor cells (FIG. 28) [3]: sub-nanomolar concentrations
Reaction with SAS1B extracellular domain (aa 164-431) polypeptide [4]: none of the them reacted
